The values that follow come from article PMC11430399, “Cold-induced degradation of core clock proteins implements temperature compensation in the Arabidopsis circadian clock” (Science Advances, 2024).

For the experiment, the target named is T1, LOV KELCH PROTEIN 2 fused with GFP (LKP2-GFP) (Arabidopsis thaliana, UniProt Q8W420 1-611).
T1 construct: LKP2, Arabidopsis thaliana, AT2G18915; Own promoter-driven genomic LKP2; source: Arabidopsis 35Sp:PRR5-F/lkp2-cr3/LKP2-GFP transgenic seedlings, in protein extract
Description: co-IP; LKP2-GFP immunoprecipitated with anti-GFP antibodies from 35Sp:PRR5-F/lkp2-cr3/LKP2-GFP seedlings kept at 12° or 28°C for 24 hours with MG132; PRR5-FLAG detected by Western blot; three biological replicates. To be noted: partners not purified. Background: A western blot detects proteins with antibodies after separation by electrophoresis.

T1 sequence (Q8W420 whole entry, the tested form may be a part): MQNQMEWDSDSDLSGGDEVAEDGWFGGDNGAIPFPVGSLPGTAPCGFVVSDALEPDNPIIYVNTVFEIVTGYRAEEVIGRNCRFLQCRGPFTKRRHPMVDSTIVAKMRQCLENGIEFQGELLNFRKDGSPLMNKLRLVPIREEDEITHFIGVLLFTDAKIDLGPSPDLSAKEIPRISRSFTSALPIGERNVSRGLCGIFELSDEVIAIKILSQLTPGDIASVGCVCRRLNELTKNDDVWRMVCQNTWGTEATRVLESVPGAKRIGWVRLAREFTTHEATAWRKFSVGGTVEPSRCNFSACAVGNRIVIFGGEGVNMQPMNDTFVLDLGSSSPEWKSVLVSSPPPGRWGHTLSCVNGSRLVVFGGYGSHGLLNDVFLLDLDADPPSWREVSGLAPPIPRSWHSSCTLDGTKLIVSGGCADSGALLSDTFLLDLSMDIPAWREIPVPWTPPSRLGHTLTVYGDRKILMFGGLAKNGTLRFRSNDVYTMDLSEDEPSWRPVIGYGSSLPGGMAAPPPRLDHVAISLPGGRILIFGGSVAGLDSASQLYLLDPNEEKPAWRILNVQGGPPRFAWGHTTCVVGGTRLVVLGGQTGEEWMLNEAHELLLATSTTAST

B1: PSEUDO-RESPONSE REGULATOR 5 with a C-terminal triple FLAG tag (PRR5-FLAG) (natural protein, Arabidopsis thaliana, UniProt Q6LA42 1-558, looked up)
chain: MTSSEEVVEVTVVKAPEAGGGKLSRRKIRKKDAGVDGLVKWERFLPKIALRVLLVEADDSTRQIIAALLRKCSYRVAAVPDGLKAWEMLKGKPESVDLILTEVDLPSISGYALLTLIMEHDICKNIPVIMMSTQDSVNTVYKCMLKGAADYLVKPLRRNELRNLWQHVWRRQTSLAPDSFPWNESVGQQKAEGASANNSNGKRDDHVVSGNGGDAQSSCTRPEMEGESADVEVSARDAVQMECAKSQFNETRLLANELQSKQAEAIDFMGASFRRTGRRNREESVAQYESRIELDLSLRRPNASENQSSGDRPSLHPSSASAFTRYVHRPLQTQCSASPVVTDQRKNVAASQDDNIVLMNQYNTSEPPPNAPRRNDTSFYTGADSPGPPFSNQLNSWPGQSSYPTPTPINNIQFRDPNTAYTSAMAPASLSPSPSSVSPHEYSSMFHPFNSKPEGLQDRDCSMDVDERRYVSSATEHSAIGNHIDQLIEKKNEDGYSLSVGKIQQSLQREAALTKFRMKRKDRCYEKKVRYESRKKLAEQRPRIKGQFVRQVQSTQAP
notes: PRR5, Arabidopsis thaliana; source: Arabidopsis 35Sp:PRR5-F transgenic seedlings (also 35Sp:PRR5-F/lkp2-cr3/LKP2-GFP), in protein extract; not shown: 3xFLAG, C-terminal, kept
In the case of B1, the “fold of co-immunoprecipitated PRR5-FLAG at 12°C against 28°C” value worked out at 15.9 fold.
